Experimental data reported in the supplement of paper PMC9170038.

What follows are sequences tested on MS2 coat protein (assay: apparent KD of MS2 coat protein; higher = weaker reporter binding). Details: Eterna round: R107; input ligand: arginine 13.2 mM.
In short: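 SNAP-549-labelled MS2 coat protein was titrated onto designed RNA switches that had been transcribed on-chip from Illumina sequencing clusters. Amounts doubled from 0.7 or 1.5 nM to 3 µM in 100 mM Tris-HCl pH 7.5, 80 mM KCl, 4 mM MgCl2, with constant ligand or without. Apparent KD is the median per design of normalised cluster binding-curve fits.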

Sequence	apparent KD of MS2 coat protein
CCUCGAUUUUGAUACCGAUAUGUCUUUGAUACCAGCGCCAUAGUACGCCCUUGGCAGCAAGAAACAUGAGGAUCACCCAUGUUAA [theeternabot_exclusion_MS2_Theo_A_36]	16.9 nM
UUUGGCGGCGAUCUGGGUUUACCAGAUCGGCGAGGACCGGUACGGCCGCCACUCGUGUUUCUUUGACAUGAGGAUCACCCAUGUA [whbob_SS_trypto A_f3]	34.9 nM

Same assay, conditions: Eterna round: R107; input ligand: none

Sequence	apparent KD of MS2 coat protein
AAAGUUGAUGAGUUGCGUUUGUGUUCCGAAGGAGCGAGAAUUAUCUCAGGUAGGUCGCGGAACAUGAGGAUCACCCAUGUAUAAA [XArg-A 19 NuV1&2 original #dotplot2>1]	36.3 nM
GGAGGUACCCGAAGGAGCGACAUGAGGAUCACCCAUGUCUCCCGUUAUGGGAGUUCCUUAGGUCAGGUAGGUCGCGGGUACCUCC [#1 Exclusion - Arginine B Attempt #1 (Inspired by Omei)]	124 nM
GAGAGUGUGUGCGAAAGCACAGAUCUGGAAGGAGCGUAGAAAGAUACAGGUAGGUCGCCGGGACAUGAGGAUCACCCAUGUGUAU [ArgiA-ms2@63]	37.7 nM
GGUGGCUGGAUCGAUACCAGCCACCACCGAUAGACCACAUGAGGAUCACCCAUGUUGGGUGGCCCUUGGCAGCGGUCCAGCUGCC [#1 Same State - Theophylline B Attempt #5 (HarryS)]	587 nM
UUAUGCAGGUCGGCCGCCACUACACACAUGAGGAUCACCCAUGUAGUUACUGGGUGAAGUGGCAGUAGGACCGGGACCUGCACAU [Brourdmod13]	479 nM
CCCUGGGUGGGAAGGAGCGCAUAGUGAACAUGAGGAUCACCCAUGUGCAGACGUGAGUCAUUGCAGGUAGGUCGCCCACCCAGGG [SS-ArgB22]	18.9 nM
GGAUGAAACUGAAGGAGCGAGAUCACAAGAUUGGGUCUAACAUGAGGAUCACCCAUGUAAUCUCAGGUAGGUCGCAGUGUCCCUU [Exclusion Arginine B GF 12]	26.6 nM
GCUUGGGUGGCACAGCACUGGCAGUGCGAUACCAGCACGGUAACGUGCCCUUGGCAGCGCACAUGAGGAUCACCCAUGUGGUGCG [#1 Exclusion - Theophylline A Attempt #26 (HarryS)]	24.4 nM
GAACAAGGUUUCUUGUUCGGUCGCUGAGAAGGAGCGCGGUAACCCGCAGGUAGGUCGCUCAGAAAUACAUGAGGAUCACCCAUGU [Anaa]	18.7 nM
AUACAUGAGGAUCACCCAUGUAUAGUUGAAGGAGCGACCAGAGGGUCAGGUAGGUCGCAGCACAUGAGGAUCACCCAUGUAUUUU [#1 Exclusion - Arginine A Attempt #14 (Inspired by Pi)]	38 nM
UCGCCCGGGUCGGCCGCCACUGAGGUGAUAUGACAUGAGGAUCACCCAUGUUGUCAUGUGGAACAUAGGACCGGGACCCGGGCGA [Exclusion - Tryptophan B Attempt #2 (HarryS)]	18.5 nM
ACACGGCAUGAUGGAUCACCUCGUGAAUCACGAGGACCGGUACGGCCGCCACUCGAAAACCGUGACCUGUACGAAAAGUGCAGGA	53 nM
AACGUGAACGUGGUAUACCCGUGUGCCGAAGGAGCGCCCGUAAGGGCAGGUAGGUCGCGGUCGACAUGAGGAUCACCCAUGUUUG	74.6 nM
GCAUCCUAGUCGGCCGCCACUGCAUCACCGGUCCUAGGUGAUCAACAUGAGGAUCACCCAUGUAGCAGGACCGGGACUAGGAUGC [(Trp1)-(MT)''-(MT)'-(Ms2)-(Trp2)_Design2]	491 nM
ACCGCAUCCGUAUAGGAUGCGGGCCAUGAAGGAGCGUGGGAAACCACAGGUAGGUCGCAUGGGUUACAUGAGGAUCACCCAUGUG [Jaws]	166 nM

Same assay, conditions: Eterna round: R107; input ligand: theophylline 20 uM

Sequence	apparent KD of MS2 coat protein
AAAGUUGAUGAGUUGCGUUUGUGUUCCGAAGGAGCGAGAAUUAUCUCAGGUAGGUCGCGGAACAUGAGGAUCACCCAUGUAUAAA [XArg-A 19 NuV1&2 original #dotplot2>1]	46.2 nM
GGAGGUACCCGAAGGAGCGACAUGAGGAUCACCCAUGUCUCCCGUUAUGGGAGUUCCUUAGGUCAGGUAGGUCGCGGGUACCUCC [#1 Exclusion - Arginine B Attempt #1 (Inspired by Omei)]	162 nM
UGACAUUGCUCAGAUACCAGACGUGAGGAUCACCCACGUGCCAACAUGAGGAUCACCCAUGUCCCUUGGCAGCUGAGCAAUGUCU	24.1 nM
GAGAGUGUGUGCGAAAGCACAGAUCUGGAAGGAGCGUAGAAAGAUACAGGUAGGUCGCCGGGACAUGAGGAUCACCCAUGUGUAU [ArgiA-ms2@63]	52.6 nM
UACAUGAGGAUCACCCAUGUAAGGUGAGAUACCAGUGAUAUGCUACACCCUUGGCAGCUCACGGCUGACUAUCAGCACACAUGUA [Theo A SS t1]	34.4 nM
GGUGGCUGGAUCGAUACCAGCCACCACCGAUAGACCACAUGAGGAUCACCCAUGUUGGGUGGCCCUUGGCAGCGGUCCAGCUGCC [#1 Same State - Theophylline B Attempt #5 (HarryS)]	1010 nM
UUAUGCAGGUCGGCCGCCACUACACACAUGAGGAUCACCCAUGUAGUUACUGGGUGAAGUGGCAGUAGGACCGGGACCUGCACAU [Brourdmod13]	739 nM
UCUAACAUGAGGAUCACCCAUGUACCGUCCCGAGGACCGGUACGGCCGCCACUCGUCUUGCUAAAACUGAAGUGAUCACAAGCCU [theeternabot_sameState_MS2_Trp_A_2]	30.9 nM
AUAAUUGGGUUAAUUAGUUUUAGGUCCAGUCGAGGACCGGUACGGCCGCCACUCGUUCCGAGAUACAUGAGGAUCACCCAUGUUA [JR_ExcTryptoA_Sub015]	34.5 nM
CCCUGGGUGGGAAGGAGCGCAUAGUGAACAUGAGGAUCACCCAUGUGCAGACGUGAGUCAUUGCAGGUAGGUCGCCCACCCAGGG [SS-ArgB22]	21.4 nM
AUCGUACCUGGUGAUACCAGCAAUUGCUCGUGACAUGAGGAUCACCCAUGUGGCCAGUGAUGCCCUUGGCAGCAUGGUCGGUGCA [Same State - Theophylline B (Freestyle 24)]	167 nM
GGAUGAAACUGAAGGAGCGAGAUCACAAGAUUGGGUCUAACAUGAGGAUCACCCAUGUAAUCUCAGGUAGGUCGCAGUGUCCCUU [Exclusion Arginine B GF 12]	42 nM
CCUUAACAUGAGGAUCACCCAUGUCUGGAUACCAGAUACAGAUAAAUCCCUUGGCAGCCAAAAUAUGAAAGAAAUAAAAUAAGAA [theeternabot_sameState_MS2_Theo_A_29]	66.3 nM
GCACCAGGUACGGAUACCAGCUGCCAGCGUUACAUGAGGAUCACCCAUGUGAUCUGAAGUAGCCCUUGGCAGCUGUACCUGGUGC [SSThB NP+V+V2 #4 +-Same Structure]	207 nM
GCUUGGGUGGCACAGCACUGGCAGUGCGAUACCAGCACGGUAACGUGCCCUUGGCAGCGCACAUGAGGAUCACCCAUGUGGUGCG [#1 Exclusion - Theophylline A Attempt #26 (HarryS)]	66.9 nM
GAACAAGGUUUCUUGUUCGGUCGCUGAGAAGGAGCGCGGUAACCCGCAGGUAGGUCGCUCAGAAAUACAUGAGGAUCACCCAUGU [Anaa]	26.4 nM
GCAAAGUGAUCGGCCGCCACUGCAAUGCUUAAUGGAGGUCCACAUGAGGAUCACCCAUGUCUUCCCAGGACCGGGAUCUCGAGUU [theeternabot_sameState_MS2_Trp_B_3]	65.5 nM
AUACAUGAGGAUCACCCAUGUAUAGUUGAAGGAGCGACCAGAGGGUCAGGUAGGUCGCAGCACAUGAGGAUCACCCAUGUAUUUU [#1 Exclusion - Arginine A Attempt #14 (Inspired by Pi)]	40.3 nM
